The results in this text go back to patent publication US10428159B2, “Blocking monoclonal antibodies to AGR2 and its receptor C4.4A” (Board of Regents, The University of Texas System, priority 2014, dated 2019).

Some results are limits rather than exact numbers.

Assay [1] deals with Capan-2 cells. In words: Model 2 Capan-2 stromal model, orthotopic tumors. It is filed as in vivo, athymic nude mice. As to the method: (§1) In vivo studies. In vivo experiments were conducted with athymic nude mice (B6.Cg-Foxn1^nu/J—female—age 9 weeks) (NCI, Bethesda, Md.) according to the UT MDACC regulatory standards and IUCAC committee approval. Orthotopic tumors were developed with luciferase-labeled cells (0.25×10^6). IgG (Cat #OB010701; Southern Biotech, Birmingham, Ala.) served as a control Ab.

For assay [2], the system named is AsPC-1 cells. Kind of assay: Apoptosis assay (Gem, rAGR2, antibodies). The assay is classed as cell-based. As to the method:
FIGS. 11A-D. Monoclonal antibodies developed bind respectively to AGR2 and C4.4A proteins and blocked their functions. From the endogenous lysate (SU86.86/Panc-1), AGR2 (18 kD) and C4.4A (50 kD) were identified by a panel of mAbs. […] Extra bands identified with the endogenous protein were re-confirmed with the recombinant protein. For apoptosis studies, AsPC-1 cells were treated without or with Gem (0.5 μM) and rAGR2 (100 nM) and with purified (A) AGR2 and (B) C4.4A Abs (1 μM). Commercially available Abs served as control. […] Horizontal line represents median apoptotic value. Data shown are mean±SE for 3 experiments (*p<0.05). (C,D) Binding assays were conducted with purified (C) AGR2 and (D) C4.4A Abs as selected from the apoptosis assay as having high blocking efficiency. ELISA assays were conducted by coating antigenic peptide (0.5 μg) and probed with respective purified Abs. Data shown are mean±SE for 3 experiments (*p <0.05). Based on high specificity and binding, clone 28B for AGR2 and 1A for C4.4A were selected. Purified Abs were also run on 4-20% gradient gel to check for the presence of heavy (50 kD) and light chains (25 kD).
Cell growth, migration, invasion and apoptosis assays. Wild-type and siRNA transfected PDAC cells were grown with rAGR2 (0-500 nM) in the presence and absence of antibodies (polyclonal commercial or newly developed mAbs) (1 μM). The medium was refreshed daily. […]

For assay [3], the system named is PDAC cell. In words: Blocking of basal and AGR2-stimulated PDAC cell migration by antibodies. It is filed as cell-based. As to conditions: antibodies 1 μM, compared to non-specific antibody. As to the method: (§2) Cell growth, migration, invasion and apoptosis assays. Wild-type and siRNA transfected PDAC cells were grown with rAGR2 (0-500 nM) in the presence and absence of antibodies (polyclonal commercial or newly developed mAbs) (1 μM). The medium was refreshed daily. Cell numbers were estimated after 48 h by MTS assay as described previously (Ramachandran et al., 2007). In order to avoid the differences in basal values for each cell line, the data are presented as the percent of viable cells compared to the appropriate controls. Migration and invasion assays were conducted at 24 h as described previously (Ramachandran et al., 2007). Apoptosis assays were conducted 72 h after adding Gemcitabine (Gem) to Gem-sensitive BxPC-3 cells (1 μM) and Gem-resistant AsPC-1 cells (5 μM) (Arumugam et al., 2009) as described previously (Ramachandran et al., 2008). Because siRNA transfection itself induced basal apoptosis, cells transfected with siRNAs were treated with a lower concentration of Gem (BxPC3: 0.5 μM; AsPC-1: 1 μM).
Blocking monoclonal antibody development. Mouse monoclonal antibodies (mAbs) against AGR2 and C4.4A were developed in the Monoclonal Antibody Core of UT MDACC using unconjugated antigenic peptides. Several hybridoma colonies (2400 for each antibody) were screened for target recognition by ELISA using KLH-conjugated peptides. […]

For assay [4], the system named is Capan-2 cells. In words: Model 3 Capan-2 regression studies, orthotopic tumors. The assay is classed as in vivo, athymic nude mice. As to conditions: 15 mg/kg single mAb or 7.5 mg each in combination, twice a week i.p. As to the method: Immunohistochemical (IHC) staining. […] Results were blindly evaluated by a pathologist and expression levels were categorized as positive or negative (cytoplasmic staining of >10% or <10% of the tumor cells, respectively) and staining intensity as strong, moderate, or no staining. Apoptotic cells were detected in paraffin sections by fluorescence-labeled TUNEL staining (Promega, Cat #G3250).
as §1
Tumor growth and metastasis were measured weekly with the IVIS® live animal bioluminescence imaging system after injecting luciferin substrate (Xenogen, Alameda, Calif.). The number of mice surviving was recorded each week and shown as the percent of the original group size.

The subject of assay [5] is AsPC-1 cells. In words: Cell proliferation (MTS assay) with rAGR2. The assay is classed as cell-based. To be noted: AsPC-1, rAGR2 0-500 nM, concentration-dependent. As to the method:
as §2
For orientation: Formazan colour is commonly taken as a measure of viable cells.

Assay [6] relates to MiaPaCa-2 cells. In words: Cell proliferation with rAGR2. It is filed as cell-based. To be noted: MiaPaCa-2, rAGR2 dose-dependent. How it is done: (§3) FIGS. 7A-D. Extracellular rAGR2-mediated functions. (A) Pancreatic cancer cells (BxPC-3 and MiaPaCa-2) were used for these studies. Extracellular addition of rAGR2 caused a significant dose-dependent increase in proliferation (BxPC-3-3-fold increase; MiaPaCa-2-4-fold increase; p<0.05). Pancreatic cancer cells were plated (2×10^4 cells) with and without rAGR2 (0-100 nM) on a Boyden's chamber for migration studies (B) and on an invasion chamber for invasion studies (C). After 22 h, cells were fixed with methanol and stained by hematoxylin, and cells in 10 random fields at 100× magnification were photographed and counted. Extracellular addition of rAGR2 caused a significant dose-dependent increase in migration (BxPC-3-7-fold increase; MiaPaCa-2-3-fold increase) and invasion (BxPC-3-10-fold increase; MiaPaCa-2-3-fold increase). (D) For analysis of apoptosis, BxPC-3 cells were treated with and without Gem (1 μM) and AGR2 (100 nM). […] Data shown are mean±SE for 3 experiments (*p<0.05 vs. control).
(§4) Cell growth, migration, invasion and apoptosis assays. Wild-type and siRNA transfected PDAC cells were grown with rAGR2 (0-500 nM) in the presence and absence of antibodies (polyclonal commercial or newly developed mAbs) (1 μM). The medium was refreshed daily. Cell numbers were estimated after 48 h by MTS assay as described previously (Ramachandran et al., 2007). […]

In assay [7] the test system is BxPC-3 cells. In words: Cell proliferation with rAGR2. The assay is classed as cell-based. To be noted: BxPC-3, rAGR2 dose-dependent. How it is done: as §3, §4
Assay [8] deals with AsPC-1 cells. In words: Invasion assay with rAGR2. As to conditions: AsPC-1, rAGR2 0-500 nM. It is filed as cell-based. How it is done:
as §2

The test system of assay [9] is AsPC-1 cells. In words: Migration assay with rAGR2. It is filed as cell-based. To be noted: AsPC-1, rAGR2 0-500 nM. How it is done: as §2
In assay [10] the test system is MiaPaCa-2 cells. In words: Migration (Boyden's chamber) with rAGR2. The assay is classed as cell-based. To be noted: MiaPaCa-2, rAGR2 0-100 nM, 22 h. How it is done: as §3, §4
The test system of assay [11] is BxPC-3 cells. In words: Migration (Boyden's chamber) with rAGR2. It is filed as cell-based. As to conditions: BxPC-3, rAGR2 0-100 nM, 22 h. As to the method:
as §3, §4

Assay [12] has as its system BxPC-3 cells. In words: Apoptosis assay (Gem, rAGR2). It is filed as cell-based. As to conditions: BxPC-3, Gem 1 μM, AGR2 100 nM. As to the method:
as §3, §4

Assay [13] relates to MiaPaCa-2 cells. Kind of assay: Invasion chamber assay with rAGR2. To be noted: MiaPaCa-2, rAGR2 0-100 nM, 22 h. It is filed as cell-based. As to the method:
as §3, §4

The test system of assay [14] is BxPC-3 cells. Kind of assay: Invasion chamber assay with rAGR2. It is filed as cell-based. As to conditions: BxPC-3, rAGR2 0-100 nM, 22 h. As to the method:
as §3, §4

B1: 162-1A-1: mouse monoclonal blocking antibody against C4.4A, IgG2b/kappa, VH SEQ ID NO: 10, VL SEQ ID NO: 11 (antibody, V domains shown)
VH: MNFGLSLIFLVLILKGVQCEVMLVESGGGLVKPGGSLKLSCAASGFTFSSYTMSWVRQTPEKRLEWVASISSGGGNTYYADSVKGRFTMSRDNAKNNLYLQMSSLRSEDTALYYCARSYYYGISYDTYWGQGTLVTVSA
VL: MKLPVRLLVLMFWIPASNSDVVMTQTPLSLPVSLGDQASISCRSSQNLVHSDGNTYLHWYLQKPGQSPKLLIYKVSNRFSGVPDRFSGSGSGTDFTLKISRVEAEDLGVYFCSQSTHVPYTFGGGTKLEIK
Take B1: in assay [1] (15 mg/kg twice a week i.p.), the Median survival was 10 weeks. Also, the mice surviving in [1] (at nine weeks (seven weeks of treatment), when all control Ab mice had died, 15 mg/kg twice a week i.p.) came to 57%. Further, the “mice with complete tumor regression” value in [1] (bioluminescence imaging, confirmed by surgical examination) is recorded as 3/7. Further, the “reduction of tumor volume” value in assay [1] (compared to control Ab, bioluminescence) is 50%. Also, in assay [1] (treatment stopped after 15 weeks, no evidence of tumor), the “mice surviving after week 63” value was “one”. For the same molecule, the “AGR2-mediated survival effects (Gem-induced apoptosis)” value in assay [2] (AsPC-1, Gem, rAGR2 100 nM, Abs 1 μM) is on record as “abolished”. The “basal and AGR2-mediated stimulation in migration” value in assay [3] is “abolished”. In assay [4], the Median survival times was found to be 12 weeks.

B2: rAGR2: human recombinant AGR2 protein (ab64013, AbCam) (protein)
chain: RDTTVKPGAKKDTKDSRPKLPQTLSRGWGDQLIWTQTYEEALYKSKTSNKPLMIIHHLDECPHSQALKKVFAENKEIQKLAEQFVLLNLVYETTDKHLSPDGQYVPRIMFVDPSLTVRADITGRYSNRLYAYEPADTALLLDNMKKALKLLKTEL
As to B2, in assay [5], the increased proliferation is reported as 3 fold. Also, the increase in proliferation in [6] is recorded as 4 fold; in assay [7], 3 fold. The “reduction of the effect of Gem (apoptosis)” value in [2] (AsPC-1, simultaneous rAGR2 with 5 μM Gem) is more than 50%. The molecule also gave an increased invasion in assay [8] of 3 fold. This molecule had an increased migration in [9] of 10 fold. Moreover, the values for the increase in migration in assay [10] and in assay [11] were 3 fold and 7 fold, respectively. For the same molecule, in assay [12], the “reduction of Gem induced apoptosis” value is on record as 50%. Moreover, the values for the increase in invasion in [13] and in assay [14] were 3 fold and 10 fold, respectively.
